Reference: patent publication US10562969B2, “Substitution monotherapy treatment for HIV-1 infection employing antibody PRO140” (CYTODYN INC., priority 2014, dated 2020)
Values joined by “and” are separate entries in the source; they are usually repeats but may differ in a detail not shown here. Equal entries are not always repeated. Where two headings read alike, the source gives them in different places. Marks after values point to notes of the source that are not given here.

What was measured:
[1] = tested on: HIV-1; conditions: dose-dependent; treatment period of 10-14 days; cited from earlier work
[2] = in vivo; cited from earlier work
[3] = single administration of solution, oral, healthy male volunteers; cited from earlier work
[4] = First Phase 2b treatment substitution study, CD4 cell count and safety; conditions: for CD4 cell count: individual subjects
Text: Efficacy assessments at each week included assessment of viral load and CD4 cells count. Safety assessments consisted of physical exam, lab, and adverse event assessments at each treatment and follow-up visit.
The Per Protocol (PP) population was defined as the set of subjects who meet the ITT population requirements, and were not associated with a major protocol violation. This population was identified before the database lock. The PP population will be the primary analysis population for the analysis of primary and secondary endpoints. […] This population will be used for the analysis of safety parameters.

[5] = tested on: HIV-1; assay: Second Phase 2b extension treatment substitution study, PRO 140 monotherapy; assay type: in vivo, human
Procedure: As with the first TS study, only subjects with exclusive CCR5-tropic virus were to be enrolled. However, 6 out of 16 subjects were determined to have dual- or mixed-tropic (D/M) virus when screening blood samples were tested by HIV-1 Co-receptor Tropism by Proviral DNA method or Ultradeep Sequencing with Reflex (Quest Diagnostics), as a retrospective exploratory analysis.

[6] = tested on: HIV-1; conditions: based on pharmacodynamic data from prior SC and IV studies
Procedure: The maximal change in HIV-1 viral load from baseline was determined at any point 59 days after initiation of therapy. To allow approximate comparisons between the IV and SC doses, the overall AUC observed for repeat SC doses was conservatively estimated by multiplying the measured AUC0-7d by the number of doses administered. Viral load and AUC data were fit to an Emax equation: E=Emax×AUC/(AUC+AUC50).

[7] = tested on: HIV-1
Procedure: All potential study patients were screened and for entry and must be HIV positive with the type of virus, ‘R5’, that uses the coreceptor CCR5 for cell entry and infection.
The first phase 2b TS study, also noted above, was conducted based on the following protocol. The TS study was for the Human Immunodeficiency Virus Type-1 (HIV-1) Infection indication. The TS study involved forty patients, was 14 weeks long, and patients' viral loads were checked weekly. Patients enrolled in the study had undetectable viral load at day one of the study (viral load<50). […] Failure of a patient under study was determined to occur if their viral load (VL) was measured at >400 two times.
Patient enrollment was staggered in this study to facilitate adequate safety monitoring. A lead cohort included 12 subjects. Enrollment of additional 28 subjects was initiated after approval by the independent DSMB.
Subjects who met all eligibility criteria, as per data gathered from Screening Visit were eligible for treatment. […] The first treatment visit took place within 42 days of the screening visit. Eligible subjects received up to 14 treatments, given every week (±3 days) or until virologic failure, whichever occurred first. Visits during the treatment phase commenced on T1, i.e. the date of first treatment, with weekly visits (±3 days) thereafter.
Subjects who experienced virologic failure (defined as two consecutive HIV-1 RNA levels of ≥400 copies/ml separated by at least 3 days) at any time during the treatment phase underwent the virologic failure (VF) visit assessments and then exited the Treatment Phase to enter the follow-up phase of the study.
Subjects who experienced VF were followed up every 4 weeks until the viral suppression was achieved (i.e., plasma HIV-1 RNA levels to return back to <50 copies/mL).
Efficacy Analysis. The main analysis of primary and secondary endpoint will be conducted on the PP population and ITT population will be used for supportive analysis. […] VF is defined as two consecutive HIV-1 RNA levels of ≥400 copies/ml separated by at least 3 days. […] The statistical comparison will be conducted using Wilcoxon rank sum test and the median time to VF for this study will be compared to 30 days.

[8] = in vivo
[9] = molecular target: T1, CCR5 (Homo sapiens, UniProt P51681); conditions: cited from earlier work
T1 sequence (P51681 whole entry): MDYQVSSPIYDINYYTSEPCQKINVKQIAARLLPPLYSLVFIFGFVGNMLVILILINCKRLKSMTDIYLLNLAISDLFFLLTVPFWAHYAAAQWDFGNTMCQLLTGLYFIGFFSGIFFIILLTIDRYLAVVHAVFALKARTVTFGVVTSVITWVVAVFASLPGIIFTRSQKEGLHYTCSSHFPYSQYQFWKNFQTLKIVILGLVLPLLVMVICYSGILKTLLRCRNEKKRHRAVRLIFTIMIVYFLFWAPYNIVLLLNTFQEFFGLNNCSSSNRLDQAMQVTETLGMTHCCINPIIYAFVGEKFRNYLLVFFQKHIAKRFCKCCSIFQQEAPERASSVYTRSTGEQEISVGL

[10] = tested on: R5 HIV-1; conditions: cited from earlier work
[11] = molecular target: CCR5 on circulating lymphocytes (Homo sapiens, UniProt P51681); conditions: single IV injection; cited from earlier work
CCR5 on circulating lymphocytes, sequence (P51681 whole entry): as above

[12] = tested on: R5 HIV-1; conditions: cited from earlier work; remark: listed apart in the source
[13] = tested on: HIV-1; conditions: antiviral; cited from earlier work
[14] = tested on: HIV-1; conditions: repeated administration; cited from earlier work
[15] = tested on: HIV-1; conditions: cited from earlier work
[16] = tested on: HIV-1; conditions: cited from earlier work; remark: listed apart in the source
[17] = cited from earlier work
[18] = cited from earlier work; remark: listed apart in the source
[19] = cited from earlier work; for mean change in CD4+ cell counts from baseline: 5 mg/kg IV
[20] = tested on: HIV-1; conditions: cited from earlier work; remark: listed apart in the source
[21] = subjects treated with SC PRO 140; cited from earlier work
[22] = molecular target: T1, CCR5; parameters: endogenous in cells; conditions: for 29 days after treatment with both 5 and 10 mg/kg doses; cited from earlier work
[23] = interim, first cohort of 12 patients

Molecule: Cc1nnc(C(C)C)n1[C@H]1C[C@H]2CC[C@@H](C1)N2CC[C@H](NC(=O)C1CCC(F)(F)CC1)c1ccccc1 [UK-427,857]
- mean reductions in HIV-1 RNA levels [1]: about 1 log10
- clinically significant changes in QTc intervals [2]: none of the above-identified agents induced clinically significant changes in QTc intervals

Molecule: CCCCOCCOc1ccc(-c2ccc3c(c2)/C=C(/C(=O)Nc2ccc([S@@+]([O-])Cc4cncn4CCC)cc2)CCCN3CC(C)C)cc1 [TAK-652]
- safety, tolerability [3]: safe and well tolerated

Molecule: COC[C@@H](c1ccc(C(F)(F)F)cc1)N1CCN(C2(C)CCN(C(=O)c3c(C)ncnc3C)CC2)C[C@@H]1C [SCH-D]
- mean reductions in HIV-1 RNA levels [1]: about 1 log10
- clinically significant changes in QTc intervals [2]: none of the above-identified agents induced clinically significant changes in QTc intervals

Molecule: CCCCN1C(=O)[C@@H]([C@H](O)C2CCCCC2)NC(=O)C12CCN(Cc1ccc(Oc3ccc(C(=O)O)cc3)cc1)CC2 [GW873140]
- mean reductions in HIV-1 RNA levels [1]: about 1 log10

Molecule: CCO/N=C(\c1ccc(Br)cc1)C1CCN(C2(C)CCN(C(=O)c3c(C)cc[n+]([O-])c3C)CC2)CC1 [SCH-C]
- mean reductions in HIV-1 RNA levels [1]: about 1 log10

B1: PRO 140: humanized IgG4,κ monoclonal antibody (mAb) to the C-C chemokine receptor type 5 (CCR5) (antibody, chains of the INN, looked up, V domains shown)
VH: EVQLVESGGGLVKPGGSLRLSCAASGYTFSNYWIGWVRQAPGKGLEWIGDIYPGGNYIRNNEKFKDKTTLSADTSKNTAYLQMNSLKTEDTAVYYCGSSFGSNYVFAWFTYWGQGTLVTVSS
VL: DIVMTQSPLSLPVTPGEPASISCRSSQRLLSSYGHTYLHWYLQKPGQSPQLLIYEVSNRFSGVPDRFSGSGSGTDFTLKISRVEAEDVGVYYCSQSTHVPLTFGQGTKVEIK
- subjects reporting 'general disorders and administration site conditions' AEs ([4]; 13 of 40 subjects): 32.5%
- subjects reporting 'infections and infestations' AEs ([4]; 14 of 40 subjects): 35%
- reported AEs deemed either unlikely or not related to study treatment ([4]; 63/89 AEs): 70.7%
- reported AEs deemed mild in nature ([4]; 72/89 AEs): 80.8%
- subjects who experienced one or more adverse events ([4]; after at least one dose of PRO 140): 28 of 40 subjects
- subjects who experienced an SAE ([4]; deemed not related to the study drug): 1 of 40 subjects
- CD4 cell count ([4]; visit T3): 585 /mm^3 and 1043 /mm^3 and 760 /mm^3 and 962 /mm^3 and 667 /mm^3 and 755 /mm^3 and 1299 /mm^3 and 677 /mm^3 and 497 /mm^3 and 443 /mm^3 and 625 /mm^3 and 554 /mm^3 and 901 /mm^3 and 858 /mm^3 and 513 /mm^3
- CD4 cell count ([4]; visit T5): 585 /mm^3 and 465 /mm^3 and 356 /mm^3 and 994 /mm^3 and 704 /mm^3 and 831 /mm^3 and 642 /mm^3 and 509 /mm^3 and 514 /mm^3 and 859 /mm^3 and 665 /mm^3 and 785 /mm^3 and 646 /mm^3
- CD4 cell counts throughout the Treatment Phase ([4]; overall review, 40 subjects): maintained at stable levels
- Proportion of Subjects with Virologic Failure within 24 weeks of PRO 140 Monotherapy ([5]; Total (N = 16)): 4/16
- subjects experiencing virologic failure in the Extension study ([5]; four out of 16 subjects): 25%
- Time on PRO 140 Monotherapy ([5]; individual subjects, interim, includes duration from PRO 140 Substitution study): 27 # of weeks (3×) and 28 # of weeks (2×) and 31 # of weeks and 22 # of weeks (5×) and 24 # of weeks and 29 # of weeks and 26 # of weeks
- subjects with more than 20 weeks of PRO 140 monotherapy ([5]; interim, first TS study plus Extension): 10 out of 16 subjects and 14 out of 16 subjects
- duration of complete viral-load suppression ([5]; ongoing extension study): ~11 months
- trough concentrations at which maximum virologic suppression is expected [6]: ≥ 5 μg/mL
- enrolled subjects who completed 12 weeks of PRO 140 Monotherapy without experiencing virologic failure ([7]; 22 out of 40 enrolled subjects): 55%
- Proportion of Subjects with Virologic Failure within 4 weeks of PRO 140 Monotherapy ([7]; CCR5 (N = 24)): 1/24
- Proportion of Subjects with Virologic Failure within 12 weeks of PRO 140 Monotherapy ([7]; CCR5 (N = 24)): 8/24
- Virologic Failure anytime during Treatment Phase ([7]; CCR5- plus Dual/Mixed-tropic Population N = 40): 18 n
- Proportion of Subjects with Virologic Failure within 12 weeks of PRO 140 Monotherapy ([7]; Total (N = 40)): 18/40
- Proportion of Subjects with Virologic Failure within 4 weeks of PRO 140 Monotherapy ([7]; Total (N = 40), 350 mg SC weekly): 1/40
- Virologic Failure ([7]; individual subjects reported as Dual/Mixed): YES
- patients who experienced virologic failure after 11 weeks of monotherapy [7, 23]: 7 patients
- patients who had not experienced virologic failure after 10 weeks of monotherapy [7, 23]: five
- patients who passed four weeks of monotherapy (no virologic failure) [7, 23]: 100%
- patients with viral load suppression after 8 weeks of monotherapy ([7]; interim, first cohort, excluding two dual-mix virus patients (six of ten)): 60%
- virologic failure subjects who achieved viral suppression to <400 and to 'Non Detectable' or <50 HIV-1 RNA copies/ml ([7]; once ART reinitiated, seventeen of eighteen subjects): 94.4%
- PK profile [8]: favorable PK profile similar to that seen in prior clinical studies
- PK samples, difference between subjects with and without virologic failure [8]: no significant difference observed
- Block Natural Activity of CCR5 [9]: No
- time mean viral load reductions of greater than 1 login were sustained post-treatment ([10]; 5 mg/kg IV group): 2-3 weeks
- development of viral resistance to PRO 140 ([10]; after single IV dose, followed 58 days): no significant development of viral resistance to PRO 140 was observed
- viral load reduction on average ([10]; single 5 mg/kg IV dose): 1.83 login
- duration of significant masking of CCR5 on circulating lymphocytes [11]: 2-4 weeks
- persistence of antiviral effects after the final dose ([12]; 324 mg SC doses): one week
- mean nadir reduction in viral load ([12]; 324 mg SC weekly for three weeks): 1.65 log10
- IC90 [13]: about 4 μg/ml
- control of HIV-1 replication [14]: prolonged control of HIV-1 replication without viral escape
- Development of Resistance in Vitro [15]: None at 40 weeks
- Viral Cross-Resistance [15]: Limited
- drops in plasma HIV-1 RNA levels ([16]; repetitive weekly administration of 324 mg SC): approximately 1.5 log10
- drops in plasma HIV-1 RNA levels ([16]; single subcutaneous doses of 324 mg): approximately 1.0 log10
- Tolerability ([17]; in vivo): No Toxicity
- time serum concentrations are maintained above the IC50 for clinical isolates of HIV-1 ([17]; single dose of 324 mg): at least 2 weeks
- mean AUC from time zero to infinity (AUC∞) ([18]; 5 mg/kg single IV, serum): 278 mg·days/L
- mean AUC from time zero to infinity (AUC∞) ([18]; in vivo, iv, 0.5 mg/kg): 11.1 mg·days/L
- mean serum half-life ([18]; in vivo, iv, 5 mg/kg): 84 h
- mean change in CD4+ cell counts from baseline ([19]; day 8): +129 cells/μL
- mean change in CD4+ cell counts from baseline ([19]; day 15): +96 cells/μL
- mean change in CD4+ cell counts from baseline ([19]; day 22): +83 cells/μL
- effect on QTc interval or other electrocardiographic parameters ([19]; in vivo, iv): no significant effect
- mean nadir reduction in viral load ([20]; single 5 mg/kg IV dose): 1.8 log10
- mean nadir reduction in viral load ([20]; single 10 mg/kg IV dose): 1.8 log10
- reduction in viral loads, all PRO 140-treated subjects ([20]; single IV infusion 5 or 10 mg/kg): more than 10 fold
- mean max log10 reductions in viral load ([20]; treatment groups (5 and 10 mg/kg IV)): 1.83 log10
- CD4+ cell counts [21]: trend towards increased CD4+ cell counts
- receptor occupancy (reduction in the number of cells detected) [22]: > 85%
